For assay [1], the target named is T1, Cry1Ab toxin (trypsinized 60 kD toxin) (Bacillus thuringiensis, UniProt P0A370 29-620, limits assumed, radioiodinated (125I, chloramine T) where used as labelled ligand).
T1 construct: domain: soluble trypsinized 60 kD toxin; also called Cry lAb
The assay can be described thus: competition ligand blot, 125I-Cry1Ab with unlabeled Cry1Ab on the 32 kD protein, gamma counting.

Assay [2] concerns the target T1, Cry1Ab toxin (trypsinized 60 kD toxin). Put plainly: blot of E. coli lysate incubated with Cry1Ab toxin, then anti-toxin antiserum.

Consider 2 molecules from US7094554 (University of Texas, dated 2006).

B1: PBW-866 expressed protein (BT-R2 aa 1210-1496), 32 kD (receptor)
chain: EEGKEFEVTIRATDGGTEPRSYSTDSTITVLFVPTLGDPIFQDNTYSVAFFEKEVGLTERFSLPHAEDPKNKLCTDDCHDIYYRIFGGVDYEPFDLDPVTNVIFLKSELDRETTATHVVQVAASNSPTGGGIPLPGSLLTVTVTVREADPRPVFEQRLYTAGISTSDNINRELLTVRATHSENAQLTYTIEDGSMAVDSTLEAVKDSAFHLNAQTGVLILRIQPTASMQGMFEFNVIATDPDEKTDTAEVKVYLISSQNRVSFIFLNDVETVESNRDFIAETFSVGF
notes: also called 32 kD protein
B1: the Kd in assay [1] is approximately 17 nM.

B2: PBW-421 expressed protein (BT-R2 aa 1367-1496), 21 kD (receptor)
chain: LYTAGISTSDNINRELLTVRATHSENAQLTYTIEDGSMAVDSTLEAVKDSAFHLNAQTGVLILRIQPTASMQGMFEFNVIATDPDEKTDTAEVKVYLISSQNRVSFIFLNDVETVESNRDFIAETFSVGF
notes: also called 21 kD protein
As for B2, the binding result in assay [2] is listed as “no binding”.

As usually defined, the Kd is a measure of binding affinity in units of concentration. A higher Kd goes with weaker binding.
